The supplement of paper PMC10567573

Test: protein stability index of a GFP-peptide fusion (GPS, HEK-293T) (PSI 1-6); higher = more stable
Conditions: c terminus: native
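Further: lentivirally expressed fusion library, cells FACS-sorted into six equal-sized GFP/DsRed ratio bins, PSI computed from sequencing read fractions per bin weighted by bin number.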

Q: With DGWIRVSSDNVADLHEKYSGSTPQ [PSMB5 addQ] as the protein, how does the protein stability index (parent: NP_002788.1) read?
A: 3.53

Q: Which protein stability index (parent: NP_006221.1) does the source give for CQPISFSGFGAEDDDLGGLGLGPQ [POLD2 addQ] here?
A: 2.97

Q: Which protein stability index (parent: NP_009172.2) does the source give for LPALFTDLYSQEITAEEAREALPQ [SNF8 addQ] here?
A: 5.05

Q: Which protein stability index (parent: NP_015628.1) does the source give for EQRNSRWNTVLRAVKAKTHHLEPQ [TRPA1 addQ] here?
A: 4.94
